The series can be described thus: protease stability score; higher = more stable; yeast display proteolysis, trypsin and chymotrypsin.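 Further: relative to predicted unfolded state with 0 unfolded-like and 1 meaning tenfold more protease.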
With “HEDEELSEWMEREMIDIMRTGDEHRFLRMADPNTRFEFNGKDIHGRERVLDVLEFLGIDHMEFEDSKVRLYDGRVEVRLEGRINVGDKQSESRITIKAEKINGRWVLHEVSIEHH”, the protease stability score is 0.821. The sequence “HEDEELSRKAVELMLELIMTGDEDTIRSLADPDTRIEINGRHHHGRHLMVEFMREWFRRYPNVQLDVHSLDIDLFNGRVLIQINLEIRIGDKHHRVRINIHADKVDGRWRLKEVRIEIK” registered a protease stability score of 1.5. In turn, “HEDEEMLHRLAELVEELFRTGDEEMHDHLMDPHARINIDGRDLHGRENMRILWQKLGIERVHVEFHDVKAIGDKASVHTFLEVNGVKVEILIRSEKINGRWVITQINIVFH” came in with a protease stability score of 0.386.

With “HEDEEMSQRMLDELMRFSRTGDWQRSAELADPHVRIIIGDKHLHGMEHWSELLKRIDHSHFHLRHVDIFENHIRLQGELRLHINGVEHRHEVIIKAHKVDGQWILESVEIR”, the protease stability score was 0.768.

“HEDEESMEHSIRRLIQAIETGDFHELTELADPHVKLTIGDKEYIGREQWEKTLRDLGIDHFDVKRSKLIGDYARVDGKVNVNGQFRDTTVIMKKVDGKWLIRSWHVH” returned a protease stability score of 1.91.

The sequence “HEDEEWAEKMVREFLEATRTGDFESTLQLADPHVRFIINGKDIHGMEDWQEHLEHIRIQYHDIRIEHREVIGDKIYVKTRIDVTIHINGRKHRTVLDVEFIIHKVNGRWIIRELEIR” had a protease stability score of 1.61. “HEDEHELRHAVELFIWLIHTGDWHTELRLADPDVRHEVNGVENHGRELMLEDLQRIKNIRFHVRRVEIRVYGDKADLHIHGRKIVDGRHKELEIHVHIRKVNGKWLLHEVEVNIR” displayed a protease stability score of 1.59. To “HEDEHKWERAFRIWIHALITGDEETTNELMDPNTRLNFNGVDFIGREDMIELIRHIRIHREHITHVEIRTFNGVLHVHMHVRRDGNINGQRRNTDVEIHIVIFKVNGRWVLHSTTIVVN” belongs 2.23. The sequence “HEDEHLMKRVAELIFRLLVTGDEDRMRDLLDPTTRMDINGKEFHGRDQVIEVWRRLIDHIRIEEVHLEDHDIYGDKVRWHMRIRTRQGDKQLHLETRFTADKFNGRWELQTVIFK” yielded a protease stability score of 1.64. “HEDEHLSRRFAELVLTYLETGDEDSILEMADPHVRTELIIGDKTFRYIGRENLERWLHEVLRKFKNLRFVPKRLHIQGDKVIMRGYVIFDGRTHETEMIWIVINGRIHAVLHHEH” had a protease stability score of 1.81. “HEDEHQAEHLLEAVFHIFLTGDWRSLHELVDPNVRFDVNGRRTHGREDLIRFSRELRIHDVRFHRVKLDVYDGRVEMRIDGRIDGEINGRRTDVRSIIEIEFIKFNGQWRVESISLNFH” had a protease stability score of 1.44. To “HEDEHYMQRIAEDILKSFLTGDFDHIYRMADPHVKLIVGDKESIGRDDMETMLRIWLEILGADHLEVKDLKTRLVGDKIEVNVDNRIQIGDKLINVKIEIIFEKVNGRWKVSRITLKLR” belongs 1.5; to “HEDEKEAEDAVREFLHNVSTGDEERMLELMDPNARLIYNGREYHGRELITHLIRELGVKVVRWRHLEVQGEKVHVDLRDTVGDKTIKTHLIFHKINGKWKVDEVKFD”, 2.26; to “HEDEKIARELTELLLHHFHTGNEESLSKLMDPNVRVIAENHELHGMEKKIEKNRKYLKDLGVDHFSFELRHLDLQGDKARVEGIEHWTINGQHHERHMVLHIVVVNGRLQESSIEIR”, 0.929. To “HEDEKVLKEMLRILAEVITTGNEEVMKRLADPHVRIDWNGRDIIGMEERYRKLREMGIEFEVRIHLRDTRSVGEKVEFITQLDVHIRVGDKTINFHQETRVDMEKVDGRWRVNEEKVV” belongs 0.415; to “HEDEKWMKHMLEMLIRSILTGDEETLHKLADPHVRLEINGQEYWGREQFTHAITQFIRHIRIDSIHVHDYHIQGEKVDFDMRSKFTINGQVDTSRLRVFILKVDGRWVVEEVIIR”, 2.27. To “HEDEQLAREFVEHLTENLRTGNEERIAELADPHVRVDIGDKHLHGWEWLRRRVRELRFHDLIIHHVEVIDGRIIFRGRMDGRVNGRHTQTEVRVELDKIDGRWTIRHIEIR” belongs 2.01; to “HEDERAFEHFIELLMHTLRTGDEELWKHLADPNYLLDVGDKHFIGRERVVEWIRHIRIKDVRVEHYKIQGDKAEIHTRVDGNIDGKELNLHSRFKMHKVDGRWLLEEVEFR”, 2.22. In turn, “HEDERDAEEMLRLIEEAVYTGDEDLTKYLMDPNVRIHVGDKEFHGRDFLIMRLLEIRHHRFRLELHDIRIQGNKVILDVRWRLDGEINGQRFDDTWDVIIIAEKVNGQWRVQTLIIR” returned a protease stability score of 2.59. To “HEDERHLHEIIKRWFEALLTGDEHVLERLLDPNARIDIDGREFIGMEKFAHDISRIKNMQIKHHHIKHVRYVDGVMHWHGQRHGVVNGQEKNVEVIINLFVYDGRFKSMHIKDD” belongs 1.06. Turning to “HEDERLMKEALEMIIESFRTGDEHTIEELADPHARVIVGDKHHHGWHELLKRVLELGVKHVNVRDMRVIGDKLEVKLELHVGDKTFDSRLHVLKVNGKWHIQFVEIH”, the protease stability score stood at 1.75.

Consider “HEDEVFFKLILHLLLEDYRTGDWESLEKFLDPSYKLVFDGKDIHGRERAVTIMRHEAHEMRIEDYHIRSLETQGDKLLLHGKFQGIVNGQRRESEIHLVILKVDGRWLWHSVQIN”, for which the protease stability score is 1.01. In the case of “HEDHERVRHIIERWWHILETGDEDEMEDMADPNVQIYIGDKRHHGREILAEHVRKFKGKKVNIKRLDIQGDKFRVDGDVHYDGRHHRVRIEIDVVDGRIKRLRIEIE” it was 1.38; in that of “HEDHKFLNEFVELWLRAEHTGDEDWLEENADPNTRVEVNGKSIHGMEYELRHLHHVLDRFKNMTFDTTVTRIDQQGDKAKVKVEIRLDIDGKDIRLEVDLIITKINGRWIVREIRYK”, 1.22; in that of “HEDKKSLEDFLELLLHAIATGDEEILRHLLDPNVRLDIDGRHVVGREELLRWFREIRVKRSDIRIDHFHVQGDKIHADVTDLYDGEFNGKRHLMVLKTELILVKFNGRWHIRTMHFH”, 2.23. To “HEDKQMMEEAVKLWIETSLTGDWRTFHRLADPHVKLQQGDKDLHGREDTRELMEKLGLDRVDIHIRKFRLYDGRIELHVEENFNGKVFEIFIDMRKVDGRWELHRVELR” belongs 1.43; to “HEDNDIMEKAMEDILEKIVTGDEDFLREQMDPHVRSVDIINGRRIERHGREDILELLRRLGFDHVRLERYDIQGDKLIVHSKFTYGDKETELRIIIWKVNGRWVFHSVEVIIL”, 1.87; to “HEDQERLKRFLEFYVHLINTGDEDRIRDLIDPHARVDIDGRIYHGREMYTQAYRDLGIDYLEIKRWEIQGDKVHLDTRVHIDGVERQTHLIIMKFNGRWIVHTMEVQ”, 1.56. To “HEDRKLEREIAEEMVKLWLTGDETRFEQLADPHVRVEDGDKESHGRENFSKLVRHRKTEFGIDHIEVEDIRVYDGRVEIRVRMEIGEKETHVRIIQVVINGRLKSVHLHFR” belongs 0.771; to “HEDYEDLDKLREHLLTAMKTGDWEVMYRNFDPHVRLLYNGKDTHGREDLRRLVEEMRTRDVRIIITREEIQGNKVFMHGTLEVDGNWNGVDRHIHREVTHIMVKIDGRWIVTVERIR”, 0.899. “HEEDEDAERAMRILVEWTKTGDEDKLRRNMDPNVKLWIDGQELHGRDSFKHLLTRFKNVKFEISDIRVLNHEEVVEIQLDTHLRIDGREHRVEIILIVIKVNGKWVMKLVEVRVR” displayed a protease stability score of 2.12. To “HEEDEMAIKIVELFIHALHTGNEELLHNLLDPEVRLTVDGRRIHGRHWVLRELLHIRVHDIHWTDIDKVNGKIELHTRQDGDVDGRRHEVNVTLVVIKVDGQWILHSVMVE” belongs 2.09; to “HEEDERIEHFFELYKRSLKTGNEEIIEYLFDPHVRYEQGDWEVHGRTEFIEMLKHLRFHTVRLRDYRLIGDYVHLDIELEGRVGDKNLHVKSTLIALKVDGRWRIHTLEIE”, 0.772; to “HEEDHHMEIAIELNQRMLQTGDEELLEKLADPSVRLKQGDKDVHGRHVVSRWLHEVIMKFPNVTIIERHVRIIDGKVHFHGDWHFNGVDQHVTIIAEKVNGRWILKTIELK”, 0.983.

For the origin of these results see the NTF2 design screens of Basanta et al. (2020).
